The text below walks through data of paper PMC4420250.

The target of the test is autoinducing peptide 1 (AIP1), active (cyclized), N-terminally biotinylated (Staphylococcus aureus).

“apoB48-containing lipoprotein particles (apoB48-LP) from serum of ApoE-/- mice (natural protein)” displayed an IC50 of inhibition of agr::P3-yfp promoter activation in S. aureus AH1677 (agr-I) cultured with 50 nM exogenous AIP1 and increasing concentrations of lipoprotein of 3.5 nM.
The value for human LDL (apoB100) (natural protein) was 2.3 nM.
